Target: His-MxiC(C184A/C233S/A247C/S290C), labelled with MTSL (Shigella flexneri) (UniProt Q04640)
Assay: continuous wave EPR; X-band, room temperature; MTSL-labelled His-MxiC(Cys) at ~75 μM with a 10-fold (~750 μM) or n-fold excess of the unlabelled partner, in 20 mM Tris-HCl pH 7.5, 100 mM NaCl; binding read from the change of the spin labels' spectrum; KD estimated from the molar ratio that gives half of the maximal change

His6-IpaD(15-332) C322S (from UniProt P18013 15-332) (domain or fragment)
Kd: 730 µM
